This assay deals with T1, full-length Spike of SARS-CoV-2 on transfected 293T cells (SARS-CoV-2, UniProt P0DTC2).
T1 construct: also called Spike-expressing cells; Wuhan-hu-1 Spike
Nature of the assay: flow cytometry on cells. As to conditions: one partner purified. For orientation: In flow cytometry, cells or beads pass a laser one at a time.

B1: Ab159 (antibody, V domains shown)
VH: QVQLVESGGGLVKPGGSLRLSCAASGFTFNNAWMSWVRQAPGKGLEWVGRIKSKTDGGTTDYAAPVKGRFTFSRDDSKNTLYLQMSSLKTEDTALYYCTTADYDILTGTPASPYWGQGTLVTVSS
VL: DIQMTQSPSSLSASVGDRVTITCRASQSITNYLNWYQQKPGKAPKFLIYAASSLQGGVPSRFRGSGSGTDFTLTISSLQPEDFATYYCQQTYSTLWTFGQGTKVEIK
notes: copies: 2 + 2
Turning to B1, the binding result is “binds”.

(Values after article PMC9664764 (iScience, 2022).)
